By Kd is commonly meant the concentration at which binding is half-saturated.

The source of these data is PMC10691697, “A small molecule exerts selective antiviral activity by targeting the human cytomegalovirus nuclear egress complex” (PLOS Pathogens, 2023).

Holding throughout (test): AlphaScreen or HTRF
On the technique in general: Bead proximity is the source of the signal in Alpha formats.

In test [1] the target is His-tagged HCMV UL50 (residues 1-169) C35N (human cytomegalovirus (HCMV)) (UniProt P16791).
For test [2], the target named is His-tagged HCMV UL50 (residues 1-169) C79S (human cytomegalovirus (HCMV)) (UniProt P16791).
Test [3] concerns the target His-tagged HCMV UL50 (residues 1-169) C54S (human cytomegalovirus (HCMV)) (UniProt P16791).
The target in test [4] is T1, Myc-tagged HCMV UL53 (residues 50-292) with glycine-serine linker (human cytomegalovirus (HCMV), UniProt P16794 50-292).
T1 construct: source: E. coli BL21 (DE3) RIPL, purified (glutathione-agarose, on-column PreScission digestion, size exclusion chromatography); not shown: GST, N-terminal, cleaved; Myc, N-terminal, kept
T1 sequence: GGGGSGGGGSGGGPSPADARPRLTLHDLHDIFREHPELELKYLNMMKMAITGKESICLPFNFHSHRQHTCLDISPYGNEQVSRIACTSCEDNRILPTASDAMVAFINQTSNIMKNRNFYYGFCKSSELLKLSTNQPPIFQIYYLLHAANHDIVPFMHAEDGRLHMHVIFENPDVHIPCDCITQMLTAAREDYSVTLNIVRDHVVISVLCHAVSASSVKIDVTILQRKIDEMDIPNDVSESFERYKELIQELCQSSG
The note with it: both partners purified.

On to “Myc-tagged HCMV UL53 (residues 50-292) with glycine-serine linker (from UniProt P16794 50-292) (domain or fragment)”, for which the Kd in test [1] came to 150 nM; in test [2] it was 340 nM; in test [3] it was 240 nM.

B1: His-tagged HCMV UL50 (residues 1-169) (domain or fragment)
chain: MEMNKVLHQDLVQATRRILKLGPSELRVTDAGLICKNPNYSVCDAMLKTDTVYCVEYLLSYWESRTDHVPCFIFKNTGCAVSLCCFVRAPVKLVSPARHVGEFNVLKVNESLIVTLKDIEEIKPSAYGVLTKCVVRKSNSASVFNIELIAFGPENEGEYENLLRELYAK
notes: also called His-UL50; source: E. coli BL21 (DE3) RIPL, purified (nickel Sepharose, size exclusion chromatography); not shown: His, N-terminal, kept
On to B1, for which the Kd in test [4] turned out to be 300 nM.
